Laboratory results taken from patent US20110038869A1.
Like-named read-outs stand apart in the source and are kept apart here. Blank lines part the entries; values can stand above or below the substance they belong to.

Experiments:
[1] = biological target: full length CD32b1 on transfected IIA1.6 cells (human) (UniProt P31994); test: flow cytometry on IIA1.6-CD32b1 cells
[2] = biological target: biotinylated CD32bECDHis (human) (UniProt P31994); test: competition ELISA, competitor 053
[3] = biological target: biotinylated CD32bECDHis (human) (UniProt P31994); test: competition ELISA, competitor 2B6
[4] = biological target: biotinylated CD32bECDHis (human) (UniProt P31994); test: competition ELISA, competitor 026
[5] = biological target: CD32b on CD32b+ Daudi cells (Daudi-luc) (human) (UniProt P31994); test: cell-based or functional assay
CD32b on CD32b+ Daudi cells (Daudi-luc) (human), sequence (P31994 43-310): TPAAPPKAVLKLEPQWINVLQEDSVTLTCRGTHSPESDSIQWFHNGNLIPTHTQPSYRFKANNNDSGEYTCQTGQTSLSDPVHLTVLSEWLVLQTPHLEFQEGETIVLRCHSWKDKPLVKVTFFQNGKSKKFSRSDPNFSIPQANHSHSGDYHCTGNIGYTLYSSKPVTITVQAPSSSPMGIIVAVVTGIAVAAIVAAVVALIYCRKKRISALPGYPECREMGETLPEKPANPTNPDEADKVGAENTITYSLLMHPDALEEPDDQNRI

[6] = biological target: biotinylated CD32bECDHis (human) (UniProt P31994); test: competition ELISA, competitor 022
[7] = biological target: full length CD32b1 on transfected IIA1.6 cells (human) (UniProt P31994); test: flow cytometry on IIA1.6-CD32b1 against IIA1.6-CD32b2 cells
[8] = biological target: full length CD32b on stably transfected IIA1.6 cells (human) (UniProt P31994); test: flow cytometry on IIA1.6-CD32b cells
full length CD32b on stably transfected IIA1.6 cells (human), sequence (P31994 43-310): as above

[9] = biological target: biotinylated CD32bECDHis (human) (UniProt P31994); test: competition ELISA, competitor 034
[10] = biological target: CD32b on CD32b+ Daudi cells (Daudi-luc) (human) (UniProt P31994); test: flow cytometry on Daudi-luc cells
CD32bECDHis (human) [11] = biological target: CD32bECDHis (human) (UniProt P31994); test: TR-FRET competition against HuMab-KLH-AlexaFluor 647
CD32bECDHis (human), sequence (P31994 43-223 limits assumed, form in doubt): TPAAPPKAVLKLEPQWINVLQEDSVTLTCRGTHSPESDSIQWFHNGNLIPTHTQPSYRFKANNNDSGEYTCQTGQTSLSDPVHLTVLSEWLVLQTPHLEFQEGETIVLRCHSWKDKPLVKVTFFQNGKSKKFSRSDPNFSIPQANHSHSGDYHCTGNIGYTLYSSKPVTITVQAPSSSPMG

[12] = biological target: biotinylated CD32bECDHis (human) (UniProt P31994); test: competition ELISA, competitor 020
[13] = biological target: biotinylated CD32bECDHis (human) (UniProt P31994); test: competition ELISA, competitor 063
[14] = biological target: biotinylated CD32bECDHis (human) (UniProt P31994); test: competition ELISA, competitor 038
[15] = biological target: CD32b on CD32b+ Daudi cells (Daudi-luc) (human) (UniProt P31994); test: flow cytometry on JeKo-1 mantle cell lymphoma cells
[16] = biological target: biotinylated CD32bECDHis (human) (UniProt P31994); test: competition ELISA, competitor 024
[17] = biological target: CD32b on CD32b+ Daudi cells (Daudi-luc) (human) (UniProt P31994); test: cell-based or functional assay; remark: listed apart in the source
CD32bECDHis (human) [18] = biological target: CD32bECDHis (human) (UniProt P31994); test: SPR BIAcore 3000, antibody immobilized, CD32bECDHis analyte
[19] = biological target: full length CD32b2 on transfected IIA1.6 cells (human) (UniProt P31994); test: flow cytometry on IIA1.6-CD32b2 cells
full length CD32b2 on transfected IIA1.6 cells (human), sequence (P31994 other isoform, or with tags, fused parts or gaps): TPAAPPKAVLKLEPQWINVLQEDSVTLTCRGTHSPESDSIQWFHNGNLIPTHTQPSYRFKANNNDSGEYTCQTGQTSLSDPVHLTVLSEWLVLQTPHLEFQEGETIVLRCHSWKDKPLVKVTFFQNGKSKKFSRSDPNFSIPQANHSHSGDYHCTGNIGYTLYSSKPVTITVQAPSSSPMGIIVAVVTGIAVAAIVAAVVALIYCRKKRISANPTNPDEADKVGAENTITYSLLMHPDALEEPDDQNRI

[20] = biological target: biotinylated CD32bECDHis (human) (UniProt P31994); test: competition ELISA, competitor 016
[21] = biological target: biotinylated CD32bECDHis (human) (UniProt P31994); test: competition ELISA, competitor 028
CD32bECDHis (human) [22] = biological target: CD32bECDHis (human) (UniProt P31994); test: ELISA on coated CD32bECDHis
CD32bECDHis (human) [23] = biological target: CD32bECDHis (human) (UniProt P31994); test: TR-FRET competition of unlabeled against labelled HuMab-KLH, Fc-mediated
CD32aECDHis (human) = CD32aECDHis (human) (UniProt P12318); test: as above
CD32aECDHis (human), sequence (P12318 34-215 limits assumed, form in doubt): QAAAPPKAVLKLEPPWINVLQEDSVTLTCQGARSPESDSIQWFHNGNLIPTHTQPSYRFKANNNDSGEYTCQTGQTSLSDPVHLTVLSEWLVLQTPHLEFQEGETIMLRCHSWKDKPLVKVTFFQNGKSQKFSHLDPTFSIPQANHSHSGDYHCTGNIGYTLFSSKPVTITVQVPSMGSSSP

biotinylated CD32bECDHis (human), sequence (P31994 43-223 limits assumed, form in doubt): as the sequence (P31994 43-223 limits assumed, form in doubt) above
full length CD32b1 on transfected IIA1.6 cells (human), sequence (P31994 43-310): as the sequence (P31994 43-310) above

EC50 [1]: 0.24 nM | % residual binding [2]: 185% | % residual binding [3]: 20% | % residual binding [4]: 168% | EC50 (nM) in ADCC, lysis of 51Cr-labelled Daudi cells by PBMC [5]: 0.25 nM | % residual binding [6]: 179% | Ratio EC50 (CD32b1)/EC50(CD32b2) [7]: 1.27 | EC50 [8]: 1.49 nM | % residual binding [9]: 185% | EC50 [10]: 0.1 nM | IC50 (CD32bECDHis (human) [11]): 0.57 nM | % residual binding [12]: 163% | % residual binding [13]: 181% | % residual binding [14]: 113% | EC50 [15]: 0.34 nM | % residual binding [16]: 174% | EC50 (nM) in ADCC, lysis of 51Cr-labelled Daudi cells by PBMC [17]: 0.13 nM | Kd (CD32bECDHis (human) [18]): 0.3 nM | koff (CD32bECDHis (human) [18]): 0.00087 s⁻¹ | kon (CD32bECDHis (human) [18]): 2.61e+06 M⁻¹ s⁻¹ | EC50 [19]: 0.19 nM | % residual binding [20]: 105% | % residual binding [21]: 165% | EC50 (CD32bECDHis (human) [22]): 1.24 nM
Substance: chimeric anti-CD32b antibody 2B6

IC50 (CD32bECDHis (human) [23]): 417 nM | IC50 (CD32aECDHis (human)): 134 nM
Substance: HuMab-KLH (a human monoclonal antibody against KLH (keyhole limpet haemocyanin))
